Measured values published in doi:10.1101/2023.02.23.529735 (bioRxiv, 2023).

Experiments:
FRET or BRET [1] = molecular target: the molecule itself; assay: FRET or BRET
FRET or BRET [2] = molecular target: the molecule itself; assay: FRET or BRET; remark: listed apart in the source

Row | Protein | FRET/Donor ratio, exponentially growing cells (FRET or BRET [1]) | FRET/Donor ratio, after a 6 min heat shock at 42 °C (FRET or BRET [1]) | FRET/Donor ratio, spheroplasts returned from 880 mOsm to 220 mOsm (FRET or BRET [1]) | FRET ratio (acceptor/donor) in foci, no additive (FRET or BRET [2]) | FRET ratio (acceptor/donor) in the solution outside the foci, no additive (FRET or BRET [2])
1 | H-NS64-VC (H-NS amino acids 1-64 fused at the C-terminus to the mVenus-mCherry VC domain) (domain or fragment, E. coli, UniProt P0ACF8 1-64, looked up) MVSEALKILNNIRTLRAQARECTLETLEEMLEKLEVVVNERREEESAAAAEVEERTRKLQQYREM | 0.126 |  |  |  | 
2 | H-NS-VC (Histone-like Nucleoid Structuring protein H-NS fused at its C-terminus to the mVenus-mCherry VC domain) (natural protein, E. coli, UniProt P0ACF8 1-137, looked up) MGSEALKILNNIRTLRAQARECTLETLEEMLEKLEVVVNERREEESAAAAEVEERTRKLQQYREMLIADGIDPNELLNSLAAVKSGTKAKRAQRPAKYSYVDENGETKTWTGQGRTPAVIKKAMDEQGKSLDDFLIKQ | 0.105 | 0.162 | 0.181 | 0.07 | 0.082
3 | H-NS86-VC (H-NS amino acids 1-86 fused at the C-terminus to the mVenus-mCherry VC domain) (domain or fragment, E. coli, UniProt P0ACF8 1-86, looked up) MVSEALKILNNIRTLRAQARECTLETLEEMLEKLEVVVNERREEESAAAAEVEERTRKLQQYREMLIADGIDPNELLNSLAAVKSGT | 0.132 |  |  | 0.073 | 0.068
